The Human Domainome abundance scans (Beltran et al. 2025)
± gives the uncertainty stated by the source.

B1: Gamma-crystallin C, residues 91 to 170; numbered along this chain, P07315 (parent)
chain: RLYEREDHKGLMMELSEDCPSIQDRFHLSEIRSLHVLEGCWVLYELPNYRGRQYLLRPQEYRRCQDWGAMDAKAGSLRRV

Variants of: B1
Assay: abundance fitness (aPCA) (normalised: wild type 0, dead -1); higher = more abundant; growth selection in yeast, the domain comes from the species named
Settings: Homo sapiens

Row | Variant | abundance fitness
1 | C40E | 0.052 ± 0.081
2 | N48P | -0.65 ± 0.13
3 | N48H | -0.022 ± 0.12
4 | N48W | -0.151 ± 0.045
5 | N48D | -0.007 ± 0.13
6 | N48A | -0.348 ± 0.13
7 | N48S | -0.238 ± 0.069
8 | N48V | -0.929 ± 0.24
9 | N48Y | -0.006 ± 0.23
10 | N48G | -0.07 ± 0.055
11 | N48C | -0.339 ± 0.17
12 | N48E | -0.314 ± 0.096
13 | N48R | -0.234 ± 0.053
14 | N48Q | -0.017 ± 0.12
15 | N48F | 0.077 ± 0.11
16 | N48K | -0.215 ± 0.14
17 | N48T | -0.823 ± 0.2
18 | S33K | -0.957 ± 0.5
19 | S33L | -0.865 ± 0.15
20 | S33V | -1.01 ± 0.26
21 | S33Q | -1.03 ± 0.31
22 | S33F | -0.99 ± 0.1
23 | S33W | -0.98 ± 0.25
24 | S33Y | -0.424 ± 0.24

Row | Variant | abundance fitness
25 | S33T | -1.04 ± 0.26
26 | S33D | -1.07 ± 0.4
27 | S33R | -0.9 ± 0.12
28 | S33H | -0.933 ± 0.5
29 | S33M | -0.673 ± 0.32
30 | S33G | -0.872 ± 0.1
31 | S33I | -0.492 ± 0.32
32 | H35M | -0.222 ± 0.087
33 | H35K | -0.029 ± 0.1
34 | H35I | -0.004 ± 0.1
35 | H35E | 0.139 ± 0.091
36 | H35W | -0.354 ± 0.12
37 | H35A | -0.053 ± 0.057
38 | H35C | -0.206 ± 0.076
39 | H35T | 0.081 ± 0.069
40 | H35L | -0.15 ± 0.06
41 | H35P | -0.789 ± 0.32
42 | H35S | -0.05 ± 0.056
43 | H35V | 0.036 ± 0.061
44 | H35G | -0.845 ± 0.12
45 | H35N | -0.09 ± 0.11
46 | H35D | -0.107 ± 0.086
47 | H35Y | -0.202 ± 0.14
48 | H35F | -0.325 ± 0.1

Row | Variant | abundance fitness
49 | E45A | -0.191 ± 0.071
50 | E45T | -0.118 ± 0.068
51 | E45I | -0.762 ± 0.21
52 | E45N | -0.933 ± 0.5
53 | E45R | -0.437 ± 0.063
54 | E45L | -0.875 ± 0.14
55 | E45Q | -0.211 ± 0.086
56 | E45M | -0.792 ± 0.28
57 | E45S | -0.149 ± 0.071
58 | E45W | -0.644 ± 0.15
59 | E45G | -0.492 ± 0.065
60 | E45K | -0.465 ± 0.15
61 | E45D | -0.265 ± 0.33
62 | E45P | -0.832 ± 0.16
63 | E45H | -0.582 ± 0.19
64 | L34D | -0.579 ± 0.27
65 | L34S | -0.897 ± 0.13
66 | L34T | -0.848 ± 0.26
67 | L34Q | -0.781 ± 0.45
68 | L34G | -0.725 ± 0.077
69 | L34I | 0.056 ± 0.077
70 | L34A | -0.064 ± 0.065
71 | L34E | -0.537 ± 0.12
72 | L34V | -0.043 ± 0.064

Row | Variant | abundance fitness
73 | L34C | -0.161 ± 0.08
74 | L34Y | -0.572 ± 0.31
75 | L34F | -0.097 ± 0.097
76 | L34M | 0.027 ± 0.093
77 | L34W | -0.486 ± 0.054
78 | G51S | -0.962 ± 0.18
79 | G51V | -0.93 ± 0.2
80 | G51W | -0.268 ± 0.18
81 | G51H | -0.752 ± 0.46
82 | G51C | -0.695 ± 0.27
83 | G51R | -0.589 ± 0.098
84 | G51A | -0.833 ± 0.27
85 | G51L | -0.807 ± 0.19
86 | G51T | -0.49 ± 0.11
87 | G51P | -1.03 ± 0.49
88 | I31E | -0.987 ± 0.4
89 | I31K | -1.02 ± 0.49
90 | I31R | -0.776 ± 0.15
91 | I31A | -0.611 ± 0.074
92 | I31D | -0.843 ± 0.21
93 | I31N | -0.912 ± 0.17
94 | I31S | -0.665 ± 0.16
95 | I31G | -1.01 ± 0.15
96 | I31T | -0.789 ± 0.14

Row | Variant | abundance fitness
97 | I31C | -0.833 ± 0.28
98 | I31W | -0.848 ± 0.16
99 | I31P | -0.951 ± 0.32
100 | I31Q | -0.992 ± 0.2
101 | Y49G | -1.11 ± 0.48
102 | Y49H | -0.94 ± 0.23
103 | Y49Q | -0.85 ± 0.36
104 | Y49A | -1.04 ± 0.23
105 | Y49N | -0.198 ± 0.3
106 | Y49R | -0.9 ± 0.2
107 | Y49S | -0.891 ± 0.17
108 | Y49M | -0.981 ± 0.49
109 | Y49P | -0.942 ± 0.29
110 | Y49E | -0.734 ± 0.29
111 | Y49W | -0.551 ± 0.13
112 | Y49C | -0.914 ± 0.29
113 | Y49K | -0.918 ± 0.5
114 | Y49V | -0.969 ± 0.5
115 | Y49L | -0.906 ± 0.16
116 | P47W | -0.832 ± 0.27
117 | P47L | -0.601 ± 0.12
118 | P47V | -0.591 ± 0.13
119 | P47Y | -0.891 ± 0.36
120 | P47D | -0.178 ± 0.094

Row | Variant | abundance fitness
121 | P47T | -0.449 ± 0.34
122 | P47Q | -0.348 ± 0.13
123 | P47C | -0.109 ± 0.25
124 | P47R | -0.502 ± 0.086
125 | P47A | -0.07 ± 0.059
126 | R52G | -0.402 ± 0.21
127 | R52T | -0.058 ± 0.16
128 | R52E | -0.28 ± 0.19
129 | R52C | -0.587 ± 0.31
130 | R52Q | -0.128 ± 0.13
131 | R52I | -0.31 ± 0.19
132 | R52A | 0.009 ± 0.11
133 | R52L | -0.219 ± 0.087
134 | R52D | -0.338 ± 0.12
135 | R52S | -0.234 ± 0.12
136 | R52W | -0.523 ± 0.16
137 | R52H | -0.324 ± 0.19
138 | R52P | -0.093 ± 0.16
139 | R52V | -0.137 ± 0.1
140 | R52N | -0.031 ± 0.49
141 | V36G | -0.76 ± 0.095
142 | V36Y | -0.947 ± 0.5
143 | V36E | -0.88 ± 0.36
144 | V36C | -0.836 ± 0.17

Row | Variant | abundance fitness
145 | V36I | -0.013 ± 0.089
146 | V36Q | -0.713 ± 0.23
147 | V36N | -0.772 ± 0.3
148 | V36S | -0.969 ± 0.35
149 | V36A | -0.783 ± 0.17
150 | V36L | -0.632 ± 0.09
151 | V36W | -0.788 ± 0.12
152 | V36M | -0.742 ± 0.27
153 | V36R | -1.08 ± 0.28
154 | Y44Q | -0.567 ± 0.4
155 | Y44F | -0.069 ± 0.088
156 | Y44T | -1.04 ± 0.24
157 | Y44V | -0.784 ± 0.13
158 | Y44H | -0.306 ± 0.15
159 | Y44E | -0.957 ± 0.27
160 | Y44G | -0.608 ± 0.073
161 | Y44P | -0.905 ± 0.21
162 | Y44N | -0.325 ± 0.13
163 | Y44S | -0.568 ± 0.078
164 | Y44A | -0.671 ± 0.18
165 | Y44L | -0.648 ± 0.086
166 | Y44R | -0.478 ± 0.09
167 | Y44W | -0.599 ± 0.081
